This note sets out measurements from US7101851 (dated 2006).

Experiment [1] has as its target T1, alpha subunit of the human FcεRI receptor expressed on Chinese hamster ovary cells (human, UniProt P12319 26-257).
T1 construct: whole, on cells; also called CHO FcεRI+ cells
T1 sequence (looked up): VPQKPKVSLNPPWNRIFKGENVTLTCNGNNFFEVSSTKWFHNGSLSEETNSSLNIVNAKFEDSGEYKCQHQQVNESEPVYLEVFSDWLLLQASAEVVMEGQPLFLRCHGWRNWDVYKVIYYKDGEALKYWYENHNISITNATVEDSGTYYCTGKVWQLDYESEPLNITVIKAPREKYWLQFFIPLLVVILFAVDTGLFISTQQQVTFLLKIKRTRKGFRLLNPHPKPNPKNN
Kind of experiment: inhibition of 125I-IgE binding to CHO cells expressing human FcεRI alpha subunit. How it is done:
To determine the ability of peptides to inhibit IgE binding to FcεRI, a cell-based binding assay was used with radiolabeled IgE. Chinese hamster ovary cells expressing the alpha subunit of the human FcεRI receptor were cultured overnight in Falcon 96 well microtiter plates at a concentration of 5 ×10^4 cells per well. The following day the cells were rinsed three times with PBS and then once with F12/DMEM. Peptide stocks were reconstituted in 100 mM Hepes buffered water, pH 7.2, at a concentration of 5 mg/mL. Working concentrations of the peptide were diluted in assay buffer (see below). 75 uL of a desired concentration of peptide was added to the top row of a separate 96 well microtiter plate and serially diluted 1:3 in 50 uL of the assay buffer (F12/DMEM, 1% BSA, 0.05% NaN_3 and 0.025 mM Hepes pH 7.2). Starting concentrations ranged from 50–500 uM. Next, 50 uL of the diluted peptide was transferred to the 96 microtiter well plate containing a monolayer of CHO FcεRI+ cells. […] Cells were […]

Experiment [2] has as its target T2, alpha subunit of the human FcεRI receptor expressed on cells (human, UniProt P12319 26-257).
T2 construct: whole, on cells; on rat basophil RBL-48 cells in the histamine release assay; also called CHO FcεRI+ cells; cell surface expressed FcεRI
T2 sequence (looked up): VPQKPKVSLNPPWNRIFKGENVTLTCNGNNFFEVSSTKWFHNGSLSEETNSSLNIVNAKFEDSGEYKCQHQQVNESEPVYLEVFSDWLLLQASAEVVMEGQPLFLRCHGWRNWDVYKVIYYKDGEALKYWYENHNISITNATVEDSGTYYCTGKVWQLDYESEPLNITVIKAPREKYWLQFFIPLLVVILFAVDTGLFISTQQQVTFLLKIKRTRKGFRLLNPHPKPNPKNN
The experiment is described as follows: inhibition of 125I-IgE binding to CHO cells expressing human FcεRI alpha. The protocol: To determine the ability of peptides to inhibit IgE binding to FcεRI, a cell-based binding assay was used with radiolabeled IgE. Chinese hamster ovary cells expressing the alpha subunit of the human FcεRI receptor were cultured overnight in Falcon 96 well microtiter plates at a concentration of 5 ×10^4 cells per well. The following day the cells were rinsed three times with PBS and then once with F12/DMEM. Peptide stocks were reconstituted in 100 mM Hepes buffered water, pH 7.2, at a concentration of 5 mg/mL. Working concentrations of the peptide were diluted in assay buffer (see below). 75 uL of a desired concentration of peptide was added to the top row of a separate 96 well microtiter plate and serially diluted 1:3 in 50 uL of the assay buffer (F12/DMEM, 1% BSA, 0.05% NaN_3 and 0.025 mM Hepes pH 7.2). Starting concentrations ranged from 50–500 uM. Next, 50 uL of the diluted peptide was transferred to the 96 microtiter well plate containing a monolayer of CHO FcεRI+ cells. […] Cells were
Alanine substitutions in IGE063 (SEQ ID NO:49) were used to assess sidechain contributions. The P9A (IGE070, SEQ ID NO:52) substitution had the largest impact with a >500× reduction in binding. […] Clearly the alanine substitutions at G8, P9, W10, G11 and W12 all had major impacts on binding FcεRI.

Bridges are numbered along the chain shown (N, C = ends). Where no end group is shown, it is not given here. [ ]: non-standard residue; d: D form. The star is where a group is joined. Biotin = O=C1N[C@H]2[C@H](CS[C@H]2CCCCC(=O)*)N1; Oic = O=C(O)[C@@H]1C[C@@H]2CCCC[C@@H]2N1; 2Nal = N[C@@H](Cc1ccc2ccccc2c1)C(=O)O; Hyp = O=C(O)[C@@H]1C[C@@H](O)CN1; hSer(lactone) = O=C1OCC[C@@H]1N*; Pip = O=C(O)[C@@H]1CCCCN1; NMeA = CN[C@@H](C)C(=O)O; Sar = CNCC(=O)O A value given as a limit tells only on which side of the number the result lay.

B1: IGE100 (peptide)
peptide: Ac-NLPRCTEG[Oic]WGWVCM
modifications: disulfide 5-14 (inferred)
notes: synthetic
Regarding B1, in experiment [1], the IC50 is 364 µM.

B2: IGE062 (peptide)
peptide: NLPRCTEGPWGWVCM
modifications: disulfide 5-14 (inferred)
notes: synthetic
Turning to B2, the IC50 in experiment [1] is 1 µM.

B3: synthetic peptide EIQECTEGPWGWFCVGSG (SEQ ID NO:8) (peptide)
peptide: EIQECTEGPWGWFCVGSG
modifications: disulfide 5-14 (inferred)
notes: also called peptide of clone g8b.11
For B3, in experiment [2], the IC50 was 37 µM and the “fold improvement in activity over the … (SEQ ID NO:1) peptide” value was > 4 fold.

B4: IGE101 (peptide)
peptide: Ac-NLPRCTEG[Hyp]WGWVCM
modifications: disulfide 5-14 (inferred)
notes: synthetic
In turn, B4 yielded an IC50 in experiment [1] of 580 µM.

B5: IGE107 (peptide)
peptide: Ac-NLPCTEGPWGWVCM
modifications: disulfide 4-13 (inferred)
notes: synthetic; As printed it lacks the Arg before the first Cys
In the case of B5, the IC50 in experiment [1] was found to be 28 µM.

B6: IGE092 (peptide)
peptide: Ac-NLPRCTEGPWGWVC-NH2
modifications: disulfide 5-14 (inferred)
notes: synthetic
As to B6, in experiment [1], the IC50 turned out to be 20 µM.

B7: IGE085 (peptide)
peptide: Ac-NLPRCTEG[Pip]WGWVCM-NH2
modifications: disulfide 5-14
notes: synthetic
B7 gave an IC50 in experiment [1] of 38.5 µM.

B8: IGE086 (peptide)
peptide: Ac-NLPRCTEG[NMeA]WGWVCM-NH2
modifications: disulfide 5-14
notes: synthetic
In experiment [1], B8 returned an IC50 of 60 µM.

B9: IGE077 (peptide)
peptide: NLPRCTEGPWGWYCM
modifications: disulfide 5-14 (inferred)
notes: synthetic
The molecule B9 came in with an IC50 in experiment [1] of 126 µM.

B10: IGE079 (peptide)
peptide: NLPRCTEAPWGWVCM
modifications: disulfide 5-14 (inferred)
notes: synthetic
In turn, B10 had an IC50 in experiment [1] of 462 µM.

B11: IGE106 (peptide)
peptide: Ac-NLPRCTEGPVGWVCM
modifications: disulfide 5-14 (inferred)
notes: synthetic
Consider B11, for which, in experiment [1], the IC50 is 84 µM.

B12: IGE209 (peptide)
peptide: Ac-NLPRCTEGPWGWACM
modifications: disulfide 5-14 (inferred)
notes: synthetic
As for B12, in experiment [1], the IC50 turned out to be 14.3 µM.

B13: IGE208 (peptide)
peptide: Ac-NLPRCAEGPWGWVCM
modifications: disulfide 5-14 (inferred)
notes: synthetic
As to B13, in experiment [1], the IC50 was found to be 6.85 µM.

B14: IGE109 (peptide)
peptide: Ac-NLPRCTEGPWGLVCM
modifications: disulfide 5-14 (inferred)
notes: synthetic
In experiment [1], B14 gave an IC50 of 10.6 µM.

B15: IGE069 (peptide)
peptide: PRCTEGPWGWVCM-NH2
modifications: disulfide 3-12 (inferred)
In the case of B15, in experiment [2], the “fold reduction in inhibition (against IGE063)” value is 34 fold.

B16: IGE063 (peptide)
peptide: Ac-NLPRCTEGPWGWVCM
modifications: disulfide 5-14 (inferred)
notes: synthetic
B16: the IC50 in experiment [1] turned out to be 1.8 µM.

B17: IGE103 (peptide)
peptide: Ac-NLPRCTEGP[2Nal]GWVCM
modifications: disulfide 5-14 (inferred)
notes: synthetic
Regarding B17, the IC50 in experiment [1] worked out at 1.2 µM.

B18: IGE095 (peptide)
peptide: Ac-NLPRCTEG[Pip]WGWVCM
modifications: disulfide 5-14 (inferred)
notes: synthetic
Consider B18, for which the IC50 in experiment [1] was determined as 23 µM.

B19: IGE068 (peptide)
peptide: LPRCTEGPWGWVCM-NH2
modifications: disulfide 4-13 (inferred)
Turning to B19, the “fold reduction in inhibition (against IGE063)” value in experiment [2] turned out to be 3 fold.

B20: IGE078 (peptide)
peptide: Biotin-NLPRCTEGPWGWVCM
modifications: disulfide 5-14 (inferred)
notes: synthetic
In experiment [1], B20 registered an IC50 of 3.4 µM.

B21: IGE058 (peptide)
peptide: Ac-NLPRCTEGPWGWVCM-NH2
modifications: disulfide 5-14 (inferred)
notes: synthetic
As to B21, the IC50 in experiment [1] amounted to 1.8 µM.

B22: IGE096 (peptide)
peptide: Ac-NLPRCTEG[NMeA]WGWVCM
modifications: disulfide 5-14 (inferred)
notes: synthetic
Molecule B22 gave an IC50 in experiment [1] of 44 µM.

B23: IGE125 (peptide)
peptide: Ac-NLPRCTEGPAWGWVCM
modifications: disulfide 5-15 (inferred)
notes: synthetic
B23 displayed a 50% inhibitory concentration (IC50) in experiment [1] of 259 µM.

B24: IGE082 (peptide)
peptide: Ac-NLPRCTEGPWGWVC
modifications: disulfide 5-14 (inferred)
For B24, the “fold reduction in binding (against IGE063)” value (from here on “fold reduction in binding”) in experiment [2] is > 400 fold.

B25: IGE090 (peptide)
peptide: Ac-EIQECTEGPWGWVCM-NH2
modifications: disulfide 5-14 (inferred)
notes: synthetic
B25: the IC50 in experiment [1] stood at 7.6 µM.

B26: IGE097 (peptide)
peptide: Ac-NLPRCTEG[Sar]WGWVCM
modifications: disulfide 5-14 (inferred)
notes: synthetic
Regarding B26, the IC50 in experiment [1] came to 84 µM.

B27: IGE063 (peptide)
peptide: Ac-NLPRCTEGPWGWVCM
modifications: disulfide 5-14 (inferred)
As to B27, in experiment [2], the IC50 is ~1 µM.

B28: IGE073 (peptide)
peptide: NLPRCTEGPWGAVCM
modifications: disulfide 5-14 (inferred)
notes: also called W12A
As to B28, in experiment [2], the “fold reduction in binding” value is 65 fold.

B29: IGE074 (peptide)
peptide: NLPRCTEGPWAWVCM
modifications: disulfide 5-14 (inferred)
On to B29, for which the “fold reduction in binding” value in experiment [2] is 30 fold.

B30: IGE079 (peptide)
peptide: NLPRCTEAPWGWVCM
modifications: disulfide 5-14 (inferred)
notes: also called G8A
On to B30, for which the “fold reduction in binding” value in experiment [2] is 256 fold.

B31: IGE070 (peptide)
peptide: NLPRCTEGAWGWVCM
modifications: disulfide 5-14 (inferred)
notes: also called P9A
B31: the “fold reduction in binding” value in experiment [2] is > 500 fold.

B32: IGE043 (peptide)
peptide: NLPRCTEGPWGWVCMAAD-NH2
modifications: disulfide 5-14 (inferred)
notes: synthetic
As to B32, the IC50 in experiment [1] came to 1.4 µM.

B33: IGE068 (peptide)
peptide: LPRCTEGPWGWVCM-NH2
modifications: disulfide 4-13 (inferred)
notes: synthetic
For B33, the IC50 in experiment [1] amounted to 3.3 µM.

B34: IGE087 (peptide)
peptide: Ac-NLPRCTEG[Sar]WGWVCM-NH2
modifications: disulfide 5-14
notes: synthetic
As to B34, the IC50 in experiment [1] is 136 µM.

B35: IGE059 (peptide)
peptide: Ac-NLPRCTAGPWGWVCMAAD-NH2
modifications: disulfide 5-14 (inferred)
notes: also called E7A
For B35, the “fold reduction in binding” value in experiment [2] was determined as 6 fold.

B36: IGE069 (peptide)
peptide: PRCTEGPWGWVCM-NH2
modifications: disulfide 3-12 (inferred)
notes: synthetic
B36 gave an IC50 in experiment [1] of 34 µM.

B37: IGE091 (peptide)
peptide: NLPRCTEGPWGWVC-NH2
modifications: disulfide 5-14 (inferred)
notes: synthetic
For B37, the IC50 in experiment [1] worked out at 12.8 µM.

B38: IGE076 (peptide)
peptide: NLPRCTEGPWGWVCMAY
modifications: disulfide 5-14 (inferred)
notes: synthetic
B38 had an IC50 in experiment [1] of 2 µM.

B39: IGE133 (peptide)
peptide: Ac-NLPRCTEGPWGWVC[hSer(lactone)]
modifications: disulfide 5-14 (inferred)
In turn, B39 registered an IC50 in experiment [1] of 2.5 µM.

One may read the IC50 as the concentration needed to halve the response being measured. Read a low IC50 as greater potency in that assay.
